Consider three substances from patent US20250312468A1, “ANTI-PROTAC ANTIBODIES AND COMPLEXES” (Merck Patent GmbH, priority 2021, published 2025).

One experiment has as its target CD33 (UniProt P20138). Kind of experiment: flow cytometry on CD33-expressing MV411 cells, Alexa Fluor 488 anti-human IgG Fab as secondary, on ice. (In flow cytometry, cells or beads pass a laser one at a time.)
The target of experiment [1] is EGFR (UniProt P00533). Kind of experiment: cell-based or functional assay.
Experiment [2] concerns the target EGFR (UniProt P00533). Kind of experiment: flow cytometry on MDAMB468 cells, Alexa Fluor 488 anti-human IgG Fab as secondary, on ice.

As usually defined, the EC50 (read off the curve) is the concentration giving half of the maximal effect. Low readings indicate a more potent agent, high ones a less potent agent. Substance “CD33-binding antibody Gemtuzumab (IgG4-PG-SPLE)” yielded an EC50 (read off the curve) with CD33 of 0.3 nM. In the experiment with EGFR [1], C225-L328C-GNE987 (antibody) had an IC50 cell viability, MDAMB468 cells, three independent experiments of 0.8 nM and a remaining nuclear BRD4 (immunofluorescence) in EGFR-expressing MDAMB468 cells at 4 nM of 44.2%. In the experiment with EGFR [2], EGFR-binding antibody Cetuximab registered an EC50 (read off the curve) of 0.6 nM.
